Tests used:
[1] = biological target: T1, Presegetalin A1[14,32]V15v
T1 chain: GVPVWAFQAKDVENASAPV

[2] = biological target: T2, Presegetalin A1[14,32]W18w
T2 chain: GVPVWAFQAKDVENASAPV

[3] = biological target: T3, Dianthus Precursor A[14,33]
T3 chain: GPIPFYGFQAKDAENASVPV

[4] = biological target: T4, Presegetalin A1[14,32]N27A
T4 chain: GVPVWAFQAKDVEAASAPV

[5] = biological target: T5, Presegetalin A1[14,32]A22V
T5 chain: GVPVWAFQVKDVENASAPV

[6] = biological target: T6, Presegetalin A1[14,30]
T6 chain: GVPVWAFQAKDVENAPV

[7] = biological target: T7, Presegetalin A1[14,32]V32A
T7 chain: GVPVWAFQAKDVENASAPA

[8] = biological target: T8, Presegetalin A1[14,24]
T8 chain: GVPVWAFQAKD

[9] = biological target: T9, Presegetalin A1[14,32]V17v
T9 chain: GVPVWAFQAKDVENASAPV

[10] = biological target: T10, Presegetalin A1[14,32]P16p
T10 chain: GVPVWAFQAKDVENASAPV

[11] = biological target: T11, Presegetalin A1[14,32]A19a
T11 chain: GVPVWAFQAKDVENASAPV

[12] = biological target: T12, Presegetalin A1[14,32] P16p W18A
T12 chain: GVPVAAFQAKDVENASAPV

[13] = biological target: T13, Presegetalin D1[14,31]
T13 chain: GLSFAFPAKDAENASSPV

[14] = biological target: T14, Presegetalin A1[14,32]P16A
T14 chain: GVAVWAFQAKDVENASAPV

[15] = biological target: T15, Presegetalin A1[14,32]F20A
T15 chain: GVPVWAAQAKDVENASAPV

[16] = biological target: T16, Presegetalin B1[14,31]
T16 chain: GVAWAFQAKDVENASAPV

[17] = biological target: T17, Presegetalin A1[14,32]V15A
T17 chain: GAPVWAFQAKDVENASAPV

[18] = biological target: T18, Presegetalin A1[14,32]A19V
T18 chain: GVPVWVFQAKDVENASAPV

[19] = biological target: T19, Presegetalin A1[14,32]E26A
T19 chain: GVPVWAFQAKDVANASAPV

[20] = biological target: T20, Presegetalin A1[14,32]S29A
T20 chain: GVPVWAFQAKDVENAAAPV

[21] = biological target: T21, Presegetalin A1[14,32]
T21 chain: GVPVWAFQAKDVENASAPV

[22] = biological target: T22, Presegetalin G1[14,31]
T22 chain: GVKYAFQPKDSENASAPV

[23] = biological target: T23, Presegetalin H1[14,31]
T23 chain: GYRFSFQAKDAENASAPV

[24] = biological target: T24, Presegetalin A1[14,32]A30V
T24 chain: GVPVWAFQAKDVENASVPV

[25] = biological target: T25, Presegetalin A1[14,32]K23A
T25 chain: GVPVWAFQAADVENASAPV

[26] = biological target: T26, Presegetalin A1[14,32]W18A
T26 chain: GVPVAAFQAKDVENASAPV

[27] = biological target: T27, Presegetalin A1[14,32]A28V
T27 chain: GVPVWAFQAKDVENVSAPV

[28] = biological target: T28, Presegetalin A1[14,32]V25A
T28 chain: GVPVWAFQAKDAENASAPV

[29] = biological target: T29, Presegetalin F1[14,38]
T29 chain: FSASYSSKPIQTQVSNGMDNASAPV

[30] = biological target: T30, Presegetalin A1[14,28]
T30 chain: GVPVWAFQAKDVENA

[31] = biological target: T31, Presegetalin A1[14,32] ins 16A17
T31 chain: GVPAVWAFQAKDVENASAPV

[32] = biological target: T32, Dianthus Precursor B[14,32]
T32 chain: GYKDCCVQAKDLENAAVPV

[33] = biological target: T33, Presegetalin A1[14,32]D24A
T33 chain: GVPVWAFQAKAVENASAPV

[34] = biological target: T34, Presegetalin A1[14,20]
T34 chain: GVPVWAF

B1: Saponaria vaccaria PCY1 (recombinant, N-terminal His6-tag, expressed in E. coli from pCB008) (protein)
chain: MATSGFSKPLHYPPVRRDETVVDDYFGVKVADPYRWLEDPNSEETKEFVDNQEKLANSVLEECELIDKFKQKIIDFVNFPRCGVPFRRANKYFHFYNSGLQAQNVFQMQDDLDGKPEVLYDPNLREGGRSGLSLYSVSEDAKYFAFGIHSGLTEWVTIKILKTEDRSYLPDTLEWVKFSPAIWTHDNKGFFYCPYPPLKEGEDHMTRSAVNQEARYHFLGTDQSEDILLWRDLENPAHHLKCQITDDGKYFLLYILDGCDDANKVYCLDLTKLPNGLESFRGREDSAPFMKLIDSFDASYTAIANDGSVFTFQTNKDAPRKKLVRVDLNNPSVWTDLVPESKKDLLESAHAVNENQLILRYLSDVKHVLEIRDLESGALQHRLPIDIGSVDGITARRRDSVVFFKFTSILTPGIVYQCDLKNDPTQLKIFRESVVPDFDRSEFEVKQVFVPSKDGTKIPIFIAARKGISLDGSHPCEMHGYGGFGINMMPTFSASRIVFLKHLGGVFCLANIRGGGEYGEEWHKAGFRDKKQNVFDDFISAAEYLISSGYTKARRVAIEGGSNGGLLVAACINQRPDLFGCAEANCGVMDMLRFHKFTLGYLWTGDYGCSDKEEEFKWLIKYSPIHNVRRPWEQPGNEETQYPATMILTADHDDRVVPLHSFKLLATMQHVLCTSLEDSPQKNPIIARIQRKAAHYGRATMTQIAEVADRYGFMAKALEAPWID
- CP (cyclic peptide product detected by LC/MS) [1]: +
- LP (linear peptide product detected by LC/MS) [1]: +
- CP (cyclic peptide product detected by LC/MS) [2]: +
- LP (linear peptide product detected by LC/MS) [2]: +
- conversion to cyclic peptide (LC/MS) [2]: the W18w mutant of presegetalin A1 was apparently relatively weakly converted to cyclic peptide
- CP (cyclic peptide product detected by LC/MS) [3]: +
- LP (linear peptide product detected by LC/MS) [3]: -
- cyclic peptide product (LC/MS, MS/MS) [3]: there was a small amount of cyclic peptide production from No. 43
- CP (cyclic peptide product detected by LC/MS) [4]: +
- LP (linear peptide product detected by LC/MS) [4]: +
- linear segetalin A production relative to WT substrate [4]: showed a relative increase in production of linear segetalin A
- segetalin A production relative to WT substrate [4]: positions were found to be sensitive to substitution ... position 20, 21, 23, 24, 27, 28 and 31
- CP (cyclic peptide product detected by LC/MS) [5]: +
- LP (linear peptide product detected by LC/MS) [5]: +
- linear segetalin A production relative to WT substrate [5]: showed a relative increase in production of linear segetalin A
- CP (cyclic peptide product detected by LC/MS) [6]: -
- LP (linear peptide product detected by LC/MS) [6]: +
- linear peptide formation (LC/MS, MS/MS) [6]: showed linear peptide formation almost equivalent to the linear peptide formed from the WT substrate (No. 1)
- CP (cyclic peptide product detected by LC/MS) [7]: +
- LP (linear peptide product detected by LC/MS) [7]: +
- linear segetalin A production relative to WT substrate [7]: showed a relative increase in production of linear segetalin A
- CP (cyclic peptide product detected by LC/MS) [8]: -
- LP (linear peptide product detected by LC/MS) [8]: +
- linear peptide formation (LC/MS, MS/MS) [8]: showed linear peptide formation almost equivalent to the linear peptide formed from the WT substrate (No. 1)
- CP (cyclic peptide product detected by LC/MS) [9]: +
- LP (linear peptide product detected by LC/MS) [9]: -
- CP (cyclic peptide product detected by LC/MS) [10]: +
- LP (linear peptide product detected by LC/MS) [10]: -
- CP (cyclic peptide product detected by LC/MS) [11]: -
- LP (linear peptide product detected by LC/MS) [11]: -
- CP (cyclic peptide product detected by LC/MS) [12]: +
- LP (linear peptide product detected by LC/MS) [12]: -
- CP (cyclic peptide product detected by LC/MS) [13]: +
- LP (linear peptide product detected by LC/MS) [13]: +
- CP (cyclic peptide product detected by LC/MS) [14]: +
- LP (linear peptide product detected by LC/MS) [14]: +
- CP (cyclic peptide product detected by LC/MS) [15]: +
- LP (linear peptide product detected by LC/MS) [15]: +
- linear segetalin A production relative to WT substrate [15]: a relative increase in production of linear segetalin A from all mutant substrates except with No. 13 and No. 14
- segetalin A production relative to WT substrate [15]: segetalin A production was found to be ≧42 times lower than the WT substrate
- CP (cyclic peptide product detected by LC/MS) [16]: +
- LP (linear peptide product detected by LC/MS) [16]: -
- CP (cyclic peptide product detected by LC/MS) [17]: +
- LP (linear peptide product detected by LC/MS) [17]: +
- CP (cyclic peptide product detected by LC/MS) [18]: -
- LP (linear peptide product detected by LC/MS) [18]: -
- CP (cyclic peptide product detected by LC/MS) [19]: +
- LP (linear peptide product detected by LC/MS) [19]: +
- linear segetalin A production relative to WT substrate [19]: showed a relative increase in production of linear segetalin A
- segetalin A production relative to WT substrate [19]: substitutions at positions 25, 26 and 29 (No. 18, 19 and 22) yielded relatively higher amounts of segetalin A than that produced from WT substrate
- CP (cyclic peptide product detected by LC/MS) [20]: +
- LP (linear peptide product detected by LC/MS) [20]: +
- linear segetalin A production relative to WT substrate [20]: showed a relative increase in production of linear segetalin A
- segetalin A production relative to WT substrate [20]: yielded a 30% increase in segetalin A production relative to wild type presegetalin A1[14,32]
- CP (cyclic peptide product detected by LC/MS) [21]: +
- LP (linear peptide product detected by LC/MS) [21]: +
- PCY1 activity (total amount of segetalin A produced) [21]: 3 nmol/mg of protein/min
- formation of segetalin A and linear segetalin A (LC/MS) [21]: purified PCY1 showed the formation of segetalin A and linear segetalin A in the presence of presegetalin A1[14,32]
- CP (cyclic peptide product detected by LC/MS) [22]: +
- LP (linear peptide product detected by LC/MS) [22]: -
- CP (cyclic peptide product detected by LC/MS) [23]: +
- LP (linear peptide product detected by LC/MS) [23]: -
- CP (cyclic peptide product detected by LC/MS) [24]: +
- LP (linear peptide product detected by LC/MS) [24]: +
- linear segetalin A production relative to WT substrate [24]: showed a relative increase in production of linear segetalin A
- CP (cyclic peptide product detected by LC/MS) [25]: +
- LP (linear peptide product detected by LC/MS) [25]: +
- linear segetalin A production relative to WT substrate [25]: showed a relative increase in production of linear segetalin A
- segetalin A production relative to WT substrate [25]: positions were found to be sensitive to substitution ... position 20, 21, 23, 24, 27, 28 and 31
- CP (cyclic peptide product detected by LC/MS) [26]: +
- LP (linear peptide product detected by LC/MS) [26]: -
- CP (cyclic peptide product detected by LC/MS) [27]: +
- LP (linear peptide product detected by LC/MS) [27]: +
- linear segetalin A production relative to WT substrate [27]: showed a relative increase in production of linear segetalin A
- segetalin A production relative to WT substrate [27]: positions were found to be sensitive to substitution ... position 20, 21, 23, 24, 27, 28 and 31
- CP (cyclic peptide product detected by LC/MS) [28]: +
- LP (linear peptide product detected by LC/MS) [28]: +
- linear segetalin A production relative to WT substrate [28]: showed a relative increase in production of linear segetalin A
- segetalin A production relative to WT substrate [28]: substitutions at positions 25, 26 and 29 (No. 18, 19 and 22) yielded relatively higher amounts of segetalin A than that produced from WT substrate
- CP (cyclic peptide product detected by LC/MS) [29]: +
- LP (linear peptide product detected by LC/MS) [29]: -
- CP (cyclic peptide product detected by LC/MS) [30]: -
- LP (linear peptide product detected by LC/MS) [30]: +
- linear peptide formation (LC/MS, MS/MS) [30]: showed linear peptide formation almost equivalent to the linear peptide formed from the WT substrate (No. 1)
- CP (cyclic peptide product detected by LC/MS) [31]: +
- LP (linear peptide product detected by LC/MS) [31]: +
- CP (cyclic peptide product detected by LC/MS) [32]: -
- LP (linear peptide product detected by LC/MS) [32]: -
- CP (cyclic peptide product detected by LC/MS) [33]: +
- LP (linear peptide product detected by LC/MS) [33]: +
- linear segetalin A production relative to WT substrate [33]: showed a relative increase in production of linear segetalin A
- segetalin A production relative to WT substrate [33]: segetalin A production was found to be ≧42 times lower than the WT substrate
- CP (cyclic peptide product detected by LC/MS) [34]: -
- LP (linear peptide product detected by LC/MS) [34]: -
